Assay results: publication PMC4782291, “Comparative characterization of two GDP-mannose dehydrogenase genes from Saccharina japonica (Laminariales, Phaeophyceae)” (BMC Plant Biology, 2016)

B1: SjGMD1 (Saccharina japonica) (protein)
chain: MAEVMPKESIIQIGCGVVGGAYAKAYKHHGFSVRGFDVVPSIIEKMNDAGIPCCHPDDCPEDLNPEIVLLSVPTPLIKETQRLDMKYVWSTVPLVLKLVEQSTGPAPIFVIRSTVPPGMTKEWMAAVKEKATKPFHVAFQPEFLRAVSCEEDARAPWQVVFGYMTGEEEVKARMTNAFLEFVGRDESKLTVLNIAEAEFMKLAHNYANGLKISFANCIYGLANQLDPTIDAQKVLYLVSSTAECFLSRKYGLRVGAPYGGVCLPKDVPELTSLAPEGSVFREFLAGTGKINEWISGPEAKNMRVELDESPNWVSPDSLTT
B2: SjGMD2 (Saccharina japonica) (protein)
chain: MSGKENVVQIGCGVVGGAYAKAYVHHGFSLTGFDVVPAIIGNMNEAGIKCFHPDDCPADLNADIVLLSVPTPLIKETQRLDMKYVWSTIPLVVKLVEQSSGLAPILVIRSTVPPGTTLKWEAEVRAKTDKPFKVAFQPEFLRAVSCEEDARAPWQIVFGCAKDADETRTRMSNCFLDFVGRDEAKLTVLNIAEAEFMKLVHNYANGLKISFANCIYGLAHELDPTIDAQKVLYLVSSTAECYLSRKYGLRVGAPYGGVCLPKDVPELTSLAPEGSVFREFLAGTGKINEWITNTPNLKVELTESPNWVSPSELII

Experiments:
[1] = substrate: Nc1nc2c(ncn2[C@@H]2O[C@H](COP(=O)(O)OP(=O)(O)O[C@H]3O[C@H](CO)[C@@H](O)[C@H](O)[C@@H]3O)[C@@H](O)[C@H]2O)c(=O)[nH]1; assay: purified protein; type: biochemical, Saccharina japonica; conditions: 100 mM Tris-HCl, co-substrate NAD+, MBP fusion
[2] = substrate: NC(=O)c1ccc[n+]([C@@H]2O[C@H](COP(=O)(O)OP(=O)(O)OC[C@H]3O[C@@H](n4cnc5c(N)ncnc54)[C@H](O)[C@@H]3O)[C@@H](O)[C@H]2O)c1; assay: purified protein; type: biochemical, Saccharina japonica; conditions: 100 mM Tris-HCl, co-substrate GDP-mannose, MBP fusion, varied: cofactor
[3] = optimal conditions (pH 8.0, 30 °C)
[4] = optimal conditions (pH 8.25, 20 °C)

Protein	Km [1, 3] [µM]	Km [2, 3] [µM]	Km [1, 4] [µM]	Km [2, 4] [µM]
B1	289	139	–	–
B2	–	–	177	195
